The values that follow come from US20180148514A1, “MULTIVALENT MEDITOPES, MEDITOPE-BINDING ANTIBODIES AND USES THEREOF” (City of Hope, priority 2014, published 2018).

One assay deals with Raji-B cells. In words: pHrodo-labeled CD-19 antibody internalization, fluorescence microscopy, Raji-B. The conditions noted are these: 100 nM antibody with or without 100 nM meditope-Fc, 30 minutes, 37° C., n=8. The class given is cell-based, human. As for the experimental part: Raji-B cells, a human B lymphocyte cell line derived from human lymphoblast, CCL-86™, ATCC®, were stained for fluorescence microscopy to determine receptor-mediated endocytosis rates of the pHrodo™-labeled CD-19 antibody. Cells were stained in Nunc® Lab-Tek® II chambered 8 well coverglass polystyrene chambers (0.7 cm^2/well). Cells were stained using either 100 nM antibody and 100 nM of Alexa Fluor 488®-labeled meditope-Fc (SEQ ID NO: 236) or 100 nM antibody alone (control) for 30 minutes at 37° C. in serum-free media. Nuclei of Raji-B cells were also stained with Hoechst 33342 (2 μg/mL final concentration for 20 minutes).
Cells were imaged with a confocal microscope using appropriate wavelength settings for pHrodo™-labeled antibodies, Alexa Fluor 488-labeled meditope-Fc, and Hoechst 33342-labeled nuclei. Z sectioning permitted visualization of the internalized materials and all quantitative measurements were taken at the same defined section height. Cells were visualized and quantified at each time point for each visualization event. Total fluorescence of each stain inside and outside of imaged cells were calculated using ImageJ analysis at a single time point of 30 minutes. Total staining for MOR-208 alone was calculated as 1797.71±194.97 (n=8). Total staining for MOR-208 bound to meditope-Fc was calculated as 4430.43±632.59 (n=8).

The subject of the next assay is SKBR3 cells. In words: Microscopy of SKBR3 cells with labeled TVM and trastuzumab variants. The class given is cell-based. As for the experimental part: TVM was labeled with NHS-Alexa Fluor 647 following the manufacturer's protocol (Thermo Fisher Scientific, Waltham Mass.) 0.1 M sodium bicarbonate buffer pH 8.0 at room temperature for 1 hour).
Assay [1] concerns Meditope-enabled trastuzumab version 2. The assay is described as follows: SPR multivalent meditope valency test at varying ligand densities. The class given is binding. Conditions: for Ka / t1/2: 37° C., 1:1 fit. The method, then:
The low density channel was approximately 150 RU (FIG. 19A), the medium density channel was approximately 750 RU (FIG. 19B), and the high density channel was approximately 1500 RU (FIG. 19C).
Trivalent meditope (TVM) (SEQ ID NO: 231) concentrations were prepared as a 5-fold dilution series from 1 μM to 2.6 pM in HBS-EP+. Samples were flowed over all four channels at 30 μL/min at 37° C. Sensograms were double referenced to the blank immobilization on channel 1 and with two “0” concentration buffer blanks.
A control meditope peptide was run at the beginning and end of the experiment to assess for loss of surface activity during the experiment. Less than 5% decrease in signal was observed on the most dense ligand surface after the experiment was completed. Regeneration buffer for the experiment was a pulse of 10 mM glycine pH 3.0 with variable time from 2-10 seconds followed by a 30 sec pulse of running buffer HBS-EP+.
Data fits were performed using BiaEvaluation software with the 1:1 fit model. Data fit quality to the 1:1 binding model decreased as the surface density of ligand increased and the off rate was not well determined due to lack of curvature.

For assay [2], the system named is meditope enabled antibody trastuzumab. In words: SPR analysis of BVM and TVM gel filtration fractions. The class given is binding. Conditions: BVM fractions 26-29, TVM fractions 21-23.
Where [3] appears, read: most densely immobilized surface.

B1: MOR-208: Meditope-enabled MOR208 (CD-19 antibody), light chain SEQ ID NO: 226, heavy chain SEQ ID NO: 227, pHrodo labeled (protein)
light: DIVMTQSPAILSLSPGERATLSCRSSKSLQNVNGNTYLYWFQQKTNGSPRLLIYRMSNLNSGVPDRFSGSGSGTEFTLTISSLEPEDEADYYCIQHLEYPITFGAGTKLEIKRTVAAPSVFIFPPSDEQLKSGTASVVCLLNNFYPREAKVQWKVDNALQSGNSQESVTEQDSKDSTYSLSSTLTLSKADYEKHKVYACEVTHQGLSSPVTKSFNRGEC
heavy: EVQLVESGGGLVKPGGSLKLSCAASGYTFTSYVMHWVRQSPGKGLEWIGYINPYNDGTKYNEKFQGRVTISSDKSISTAYMELSSLRSEDTAIYYCARGTYYYGTRVFDYWGQGTLVTVSSASTKGPSVFPLAPSSKSTSGGTAALGCLVKDYFPEPVTVSWNSGALTSGVHTFPAVLQSSGLYSLSSVVTVPSSSLGTQTYICNVNHKPSNTKVDKKVEPKSCDKTHTCPPCPAPELLGGPDVFLFPPKPKDTLMISRTPEVTCVVVDVSHEDPEVQFNWYVDGVEVHNAKTKPREEQFNSTFRVVSVLTVVHQDWLNGKEYKCKVSNKALPAPEEKTISKTKGQPREPQVYTLPPSREEMTKNQVSLTCLVKGFYPSDIAVEWESNGQPENNYKTTPPMLDSDGSFFLYSKLTVDKSRWQQGNVFSCSVMHEALHNHYTQKSLSLSPGK
modifications: pHrodo label; (1)..(219) MOR-208 Light chain; (1)..(451) MOR-208 Heavy chain
Turning to B1, the “total staining (total fluorescence, ImageJ)” value in the assay with Raji-B cells is 1797.71±194.97.

B2: TVM: trivalent meditope, peptide sequence of SEQ ID NO: 231, expressed in E. coli (protein)
chain: MGGGSWSHPQFEKGGGSGGGMSDSEVNQEAKPEVKPEVKPETHINLKVSDGSSEIFFKIKKTTPLRRLMEAFAKRQGKEMDSLRFLYDGIRIQADQTPEDLDMEDNDIIEAHREQIGGGGSAAPSSAPSPSAPCQFDLSTRRLSCGGASPAASPSAPSSPAPKAPSAAPSSAPSPSAPGGCQFDLSTRRLSCGGASPAASPSAPSSPAPKAPSAAPSSAPSPSAPGGCQFDLSTRRLSCGGSPSAPSSPSSPKLPETG
modifications: (1)..(258) His6-SMT-Trivalent meditope (TVM) sequence (Amino Acid)
One may read the half-life as the time needed for the level to fall by half in the phase considered. Read a high half-life as slow loss. Consider B2, for which the “cell morphology and attachment” value is “rounded morphology and frequently detached from the surface of the coverslides” in the assay on SKBR3 cells (labeled TVM with meditope enabled antibody trastuzumab); “not observed” in the assay on SKBR3 cells (labeled TVM with parental trastuzumab). The Ka in assay [1] (density 150 RU) came to 8700 M⁻¹ s⁻¹; in assay [1] (density 750 RU) it was 10000 M⁻¹ s⁻¹; in assay [1] (density 1500 RU), 9800 M⁻¹ s⁻¹. The values for the t1/2 in assay [1] (density 150 RU), in assay [1] (density 750 RU) and in assay [1] (density 1500 RU) were 0.4 h, 1.3 h and 2.4 h, respectively. In addition, in assay [1] (setting [3]), the half-life came to 2.42 h. In assay [1] (setting [3]), the “improvement of half-life over monovalent meditope” value is over 30 fold. Further, in assay [2], the “binding (SPR)” value is “bound meditope enabled antibody trastuzumab antibodies”.

B3: BVM: bivalent meditope, peptide sequence of SEQ ID NO: 229 (protein)
chain: MGSSHHHHHHSSGLVPRGSHMGGGSWSHPQFEKGGGSGGGMSDSEVNQEAKPEVKPEVKPETHINLKVSDGSSEIFFKIKKTTPLRRLMEAFAKRQGKEMDSLRFLYDGIRIQADQTPEDLDMEDNDIIEAHREQIGGGGSAAPSSAPSPSAPCQFDLSTRRLSCGGASPAASPSAPSSPAPKAPSAAPSSAPSPSAPGGCQFDLSTRRLSCGGASPAASPSAPSSPAPK
modifications: (1)..(230) His6-SMT3-Bivalent meditope (BVM) sequence (Amino Acid)
With B3, the “binding (SPR)” value in assay [2] is on record as “bound meditope enabled antibody trastuzumab antibodies”.
